Experimental data published in US20220363757A1 (SYMPHOGEN A S, published 2022).

T1: human LAG-3 domain 1-2 Fc fusion, point mutation #63 D123A (human, UniProt P18627 23-266)
T1 construct: not shown: human IgG1 Fc, AA P101-K330
T1 sequence: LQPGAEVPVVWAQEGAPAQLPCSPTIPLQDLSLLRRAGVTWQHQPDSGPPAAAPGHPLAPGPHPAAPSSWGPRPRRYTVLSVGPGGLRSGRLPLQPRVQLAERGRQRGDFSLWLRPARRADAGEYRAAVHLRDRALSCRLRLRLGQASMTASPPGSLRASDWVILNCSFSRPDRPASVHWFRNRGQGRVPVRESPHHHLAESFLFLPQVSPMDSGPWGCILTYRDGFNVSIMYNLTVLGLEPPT

T2: human LAG-3 domain 1-2 Fc fusion, point mutation #57 R113A (human, UniProt P18627 23-266)
T2 construct: not shown: human IgG1 Fc, AA P101-K330
T2 sequence: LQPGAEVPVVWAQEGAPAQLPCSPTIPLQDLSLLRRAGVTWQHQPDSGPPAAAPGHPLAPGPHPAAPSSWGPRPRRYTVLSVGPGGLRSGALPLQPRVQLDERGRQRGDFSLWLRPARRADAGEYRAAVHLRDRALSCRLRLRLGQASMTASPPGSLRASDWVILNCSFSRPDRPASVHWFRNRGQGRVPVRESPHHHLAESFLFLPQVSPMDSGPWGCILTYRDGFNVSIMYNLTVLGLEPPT

T3: human LAG-3 domain 1-2 Fc fusion, point mutation #19 D68A (human, UniProt P18627 23-266)
T3 construct: not shown: human IgG1 Fc, AA P101-K330
T3 sequence: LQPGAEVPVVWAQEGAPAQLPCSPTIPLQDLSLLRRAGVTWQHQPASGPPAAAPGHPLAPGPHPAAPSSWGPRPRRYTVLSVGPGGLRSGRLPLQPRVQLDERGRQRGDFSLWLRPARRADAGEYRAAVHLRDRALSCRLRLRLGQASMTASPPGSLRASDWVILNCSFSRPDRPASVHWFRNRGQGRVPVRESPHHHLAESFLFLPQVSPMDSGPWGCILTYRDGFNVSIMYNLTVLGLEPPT

T4: human LAG-3 domain 1-2 Fc fusion, point mutation #31 P84A (human, UniProt P18627 23-266)
T4 construct: not shown: human IgG1 Fc, AA P101-K330
T4 sequence: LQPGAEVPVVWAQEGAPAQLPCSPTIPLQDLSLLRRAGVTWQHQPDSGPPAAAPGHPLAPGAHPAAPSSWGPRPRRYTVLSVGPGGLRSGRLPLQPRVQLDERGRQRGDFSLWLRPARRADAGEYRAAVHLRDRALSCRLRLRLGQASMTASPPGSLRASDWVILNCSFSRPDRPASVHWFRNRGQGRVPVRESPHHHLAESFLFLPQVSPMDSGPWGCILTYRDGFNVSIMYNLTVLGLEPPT

T5: human LAG-3 domain 1-2 Fc fusion, point mutation #7 P49A (human, UniProt P18627 23-266)
T5 construct: not shown: human IgG1 Fc, AA P101-K330
T5 sequence: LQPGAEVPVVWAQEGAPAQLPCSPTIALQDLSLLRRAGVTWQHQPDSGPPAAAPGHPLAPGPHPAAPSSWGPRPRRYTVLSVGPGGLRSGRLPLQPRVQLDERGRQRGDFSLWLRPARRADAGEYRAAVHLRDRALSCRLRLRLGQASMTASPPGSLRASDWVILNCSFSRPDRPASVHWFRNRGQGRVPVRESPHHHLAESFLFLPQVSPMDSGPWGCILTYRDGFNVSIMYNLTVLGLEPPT

T6: human LAG-3 domain 1-2 Fc fusion, point mutation #18 P67A (human, UniProt P18627 23-266)
T6 construct: not shown: human IgG1 Fc, AA P101-K330
T6 sequence: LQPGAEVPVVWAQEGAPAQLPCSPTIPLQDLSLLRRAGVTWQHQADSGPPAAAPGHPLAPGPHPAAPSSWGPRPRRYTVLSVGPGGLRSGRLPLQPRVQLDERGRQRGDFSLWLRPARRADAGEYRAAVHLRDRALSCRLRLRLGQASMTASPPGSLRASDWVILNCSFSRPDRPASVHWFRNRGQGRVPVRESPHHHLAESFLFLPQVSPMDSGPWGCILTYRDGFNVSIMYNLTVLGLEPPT

T7: human LAG-3 domain 1-2 Fc fusion, point mutation #1 A40S (human, UniProt P18627 23-266)
T7 construct: not shown: human IgG1 Fc, AA P101-K330
T7 sequence: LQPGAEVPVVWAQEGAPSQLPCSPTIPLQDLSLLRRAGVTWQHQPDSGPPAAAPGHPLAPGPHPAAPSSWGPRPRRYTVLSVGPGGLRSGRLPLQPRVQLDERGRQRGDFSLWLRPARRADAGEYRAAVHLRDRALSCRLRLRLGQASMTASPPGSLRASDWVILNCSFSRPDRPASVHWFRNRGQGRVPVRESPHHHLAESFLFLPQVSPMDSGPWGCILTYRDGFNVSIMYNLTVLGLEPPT

T8: human LAG-3 domain 1-2 Fc fusion, point mutation #46 Y99A (human, UniProt P18627 23-266)
T8 construct: not shown: human IgG1 Fc, AA P101-K330
T8 sequence: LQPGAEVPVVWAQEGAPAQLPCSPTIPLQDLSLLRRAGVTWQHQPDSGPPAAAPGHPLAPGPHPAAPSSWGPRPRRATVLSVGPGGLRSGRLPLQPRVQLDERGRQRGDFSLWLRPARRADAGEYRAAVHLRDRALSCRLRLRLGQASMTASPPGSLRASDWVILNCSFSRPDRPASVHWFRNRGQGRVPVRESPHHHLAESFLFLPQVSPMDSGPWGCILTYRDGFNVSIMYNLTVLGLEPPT

T9: human LAG-3 domain 1-2 Fc fusion, point mutation #42 R95A (human, UniProt P18627 23-266)
T9 construct: not shown: human IgG1 Fc, AA P101-K330
T9 sequence: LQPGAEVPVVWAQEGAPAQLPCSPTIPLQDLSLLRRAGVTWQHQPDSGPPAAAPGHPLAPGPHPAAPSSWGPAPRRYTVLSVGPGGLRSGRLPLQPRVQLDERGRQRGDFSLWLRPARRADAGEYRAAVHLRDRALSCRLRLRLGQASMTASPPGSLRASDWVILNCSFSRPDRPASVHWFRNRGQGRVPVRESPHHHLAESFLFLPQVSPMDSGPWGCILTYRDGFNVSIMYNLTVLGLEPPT


Columns and labels:
Experiment in all cases: SPR, Fab over captured mutant LAG-3-Fc;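 also: fc fusion variants captured on anti-human IgG Fc sensor, Fab injected with association then dissociation phases, KD obtained from Langmuir one-to-one fit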
[1] = target: T1, human LAG-3 domain 1-2 Fc fusion, point …
Procedure: (§1) The LAG-3 fusion proteins were immobilized onto a G-a-hu-IgG Fc SensEye® (Ssens BV, The Netherlands) for 15 minutes using a Continuous Flow Microspotter (CFM, Wasatch Microfluidics, Salt Lake City, US). After spotting, the SensEye® was positioned in an IBIS MX96 biosensor and captured proteins were evaluated for binding affinity. […] Fab association was performed for 15 minutes and antigen dissociation was performed for 15 minutes. The recorded binding responses were fitted to a simple Langmuir 1:1 binding model with Scrubber 2 software for calculation of the on-rate (kon or ka), off-rate (koff or kd) and affinity (KD) constants.

[2] = target: T2, human LAG-3 domain 1-2 Fc fusion, point …
Procedure: as §1

[3] = target: T3, human LAG-3 domain 1-2 Fc fusion, point …
Procedure: as §1

[4] = target: T4, human LAG-3 domain 1-2 Fc fusion, point …
Procedure: as §1

[5] = target: T5, human LAG-3 domain 1-2 Fc fusion, point …
Procedure: as §1

[6] = target: T6, human LAG-3 domain 1-2 Fc fusion, point …
Procedure: as §1

[7] = target: T7, human LAG-3 domain 1-2 Fc fusion, point …
Procedure: as §1

[8] = target: T8, human LAG-3 domain 1-2 Fc fusion, point …
Procedure: as §1

[9] = target: T9, human LAG-3 domain 1-2 Fc fusion, point …
Procedure: as §1

KD mutant/KD wild type [1] [fold]	KD mutant/KD wild type [2] [fold]	KD mutant/KD wild type [3] [fold]	KD mutant/KD wild type [4] [fold]	KD mutant/KD wild type [5] [fold]	KD mutant/KD wild type [6] [fold]	KD mutant/KD wild type [7] [fold]	KD mutant/KD wild type [8] [fold]	KD mutant/KD wild type [9] [fold]	binding result [3]	binding result [5]	binding result [6]	binding result [7]	binding result [8]	Binder
1	0.6	3.4	0.5	1.7	3.8	4.4	4.1	3.7	–	–	–	–	–	Fab fragment of antibody 15532 (Fab, V domains shown, not shown: a dimerising Fc or GST, monomeric Fab made by GingisKHAN digestion of the IgG1) VH: QVQLQQWGAGLLRPSETLSLTCAVYGESFSGYYWNWIRQPPGKGLEWIGEINHSGSTNYNPSLKSRVTISVDTSKTQFSLKLSSVTAADTAVYYCARGWDLLDWNDYWNEYWGQGTLVTVSS VL: EIVLTQSPATLSLSPGERATLSCRASQSVSSYLAWYQQKPGQAPRLLIYDASNRATGIPARFSGSGSGTDFTLTISSLEPEDFAVYYCQQRSNWPLTFGGGTKVEIKR
0.9	0.9	–	1.1	–	–	–	–	1.9	no binding (tested: 300 nM)	no binding (tested: 300 nM)	no binding (tested: 300 nM)	no binding (tested: 300 nM)	no binding (tested: 300 nM)	Fab fragment of antibody 15431 (Fab, V domains shown, not shown: a dimerising Fc or GST, monomeric Fab made by GingisKHAN digestion of the IgG1) VH: QVQLQQSGPGLVKPSQTLSLTCAISGDSVSSNSAAWNWIRQSPSRGLEWLGRTYYRSKWYNDYAVSVKSRITINPDTSKNQFSLQLNSVTPEDTAVYYCARDDDWNDFDYWGQGTLVTVSS VL: EIVLTQSPATLSLSPGERATLSCRASQSVSSYLAWYQQKPGQAPRLLIYDASNRATGIPARFSGSGSGTDFTLTISSLEPEDFAVYYCQQRSNWPLTFGGGTKVEIKR

Further lines, the binder ahead of its results:

Binder	KD mutant/KD wild type [1] [fold]	KD mutant/KD wild type [2] [fold]	KD mutant/KD wild type [3] [fold]	KD mutant/KD wild type [4] [fold]	KD mutant/KD wild type [5] [fold]	KD mutant/KD wild type [6] [fold]	KD mutant/KD wild type [7] [fold]	KD mutant/KD wild type [8] [fold]	KD mutant/KD wild type [9] [fold]	binding result [3]	binding result [5]	binding result [6]	binding result [7]	binding result [8]
Fab fragment of antibody 15011 (Fab, V domains shown, not shown: a dimerising Fc or GST, monomeric Fab made by GingisKHAN digestion of the IgG1) VH: EVQLLESGGGLVQPGGSLRLSCAASGFDFRSYAMMWVRQAPGKGLEWVGGINGEVGGSNTYYAPAVKGRATISRDNSKNTLYLQMNSLRAEDTAVYYCVKGAGACGICNDDIDAWGQGTLVTVSS VL: SYELTQDPAVSVALGQTVRITCSGAGSYAGSYYYGWHQQKPGQAPVTVIYDNDKRPSNIPDRFSGSSSGNTASLTITGAQAEDEADYYCGSTNDNDDGGLFGSGTKVTVLG	0.8	3.3	0.6	1	0.8	0.6	0.6	0.5	0.7	–	–	–	–	–
Fab fragment of antibody 15572 (Fab, V domains shown, not shown: a dimerising Fc or GST, monomeric Fab made by GingisKHAN digestion of the IgG1) VH: QLQLQESGPGLVKPSETLSLTCTVSGDSISSSSYYWGWIRQPPGKGLEWIGSIFYSGNTYYNPSLKSRVTISVDTSKNQFSLKLSSVTAADTAVYYCAREDDFLTDYYGAFDIWGQGTMVTVSS VL: not shown	0.5	0.7	–	0.9	–	–	–	–	0.6	no binding (tested: 300 nM)	no binding (tested: 300 nM)	no binding (tested: 300 nM)	no binding (tested: 300 nM)	no binding (tested: 300 nM)
